B1: λ phage replication protein λO (natural protein, UniProt P03688 1-333, looked up)
chain: MTNTAKILNFGRGNFAGQERNVADLDDGYARLSNMLLEAYSGADLTKRQFKVLLAILRKTYGWNKPMDRITDSQLSEITKLPVKRCNEAKLELVRMNIIKQQGGMFGPNKNISEWCIPQNEGKSPKTRDKTSLKLGDCYPSKQGDTKDTITKEKRKDYSSENSGESSDQPENDLSVVKPDAAIQSGSKWGTAEDLTAAEWMFDMVKTIAPSARKPNFAGWANDIRLMRERDGRNHRDMCVLFRWACQDNFWSGNVLSPAKLRDKWTQLEINRNKQQAGVTASKPKLDLTNTDWIYGVDLKTSPHRWLTLTVSRCVGSPTTCRNSTTKSRRYSR
notes: replication protein O of phage λ
B2: trigger factor (TF) (natural protein, E. coli, UniProt P0A850 1-432, looked up)
chain: MQVSVETTQGLGRRVTITIAADSIETAVKSELVNVAKKVRIDGFRKGKVPMNIVAQRYGASVRQDVLGDLMSRNFIDAIIKEKINPAGAPTYVPGEYKLGEDFTYSVEFEVYPEVELQGLEAIEVEKPIVEVTDADVDGMLDTLRKQQATWKEKDGAVEAEDRVTIDFTGSVDGEEFEGGKASDFVLAMGQGRMIPGFEDGIKGHKAGEEFTIDVTFPEEYHAENLKGKAAKFAINLKKVEERELPELTAEFIKRFGVEDGSVEGLRAEVRKNMERELKSAIRNRVKSQAIEGLVKANDIDVPAALIDSEIDVLRRQAAQRFGGNEKQALELPRELFEEQAKRRVVVGLLLGEVIRTNELKADEERVKGLIEEMASAYEDPKEVIEFYSKNKELMDNMRNVALEEQAVEAVLAKAKVTEKETTFNELMNQQA
B3: zinc-binding domain (ZBD) of ClpX (domain or fragment, E. coli)
chain: TDKRKDGSGKLLYCSFCGKSQHEVRKLIAGPSVYICDECVDLCNDIIREEIKEVAPHRER
notes: Tag removal rests on the words 'purified by the same procedure as TFN'; Isotopically labelled in one NMR experiment; also called ClpX ZBD; ZBD dimer; source: E. coli BL21(DE3), purified (Ni Sepharose, gel filtration; same procedure as TFN; 100 μM ZnCl2 added before size exclusion)
B4: ClpX (enzyme)
chain: not shown
notes: E. coli ClpX unfoldase (N-terminal ZBD and C-terminal AAA+ domain); expressed from pProEXHTb ClpX; the SPR running buffer held EDTA and no nucleotide, and the oligomeric state in that assay was not measured; also called WT ClpX; full-length ClpX; source: E. coli BL21(DE3), purified the same way as TF (Ni-NTA; His-tag removed with TEV protease)

Assays:
[1] = target: B2; test: SPR; TF immobilised on a CM5 chip by amine coupling, analytes injected at 20 μL/min for 90 s; Biacore X, 22 °C; 10 mM HEPES pH 7.5, 150 mM NaCl, 3 mM EDTA, 0.005% P20; steady-state response against concentration, one-site Langmuir model; apparent Kd for ClpX; conditions: both partners purified
[2] = target: HV-ClpX (N-terminally tagged ClpX) (E. coli, UniProt P0A6H1 1-424); test: cell-based or functional assay
HV-ClpX (N-terminally tagged ClpX), sequence (P0A6H1 whole entry): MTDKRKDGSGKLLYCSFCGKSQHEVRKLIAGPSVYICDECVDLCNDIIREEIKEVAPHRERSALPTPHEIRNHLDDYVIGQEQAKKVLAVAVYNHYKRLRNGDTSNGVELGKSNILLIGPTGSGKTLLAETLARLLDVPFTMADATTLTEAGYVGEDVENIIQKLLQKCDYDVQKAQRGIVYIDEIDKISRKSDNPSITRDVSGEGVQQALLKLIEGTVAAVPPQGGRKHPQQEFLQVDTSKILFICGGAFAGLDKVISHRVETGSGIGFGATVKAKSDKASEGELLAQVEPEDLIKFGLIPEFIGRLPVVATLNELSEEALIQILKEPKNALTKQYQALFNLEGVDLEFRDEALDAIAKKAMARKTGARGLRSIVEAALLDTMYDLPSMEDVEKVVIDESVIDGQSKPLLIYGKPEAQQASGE

Row | Binder | Kd [1] | clipping of HV-ClpX by bound ClpP with ATP, rate of disappearance of HV-ClpX with and without TF (Fig. 3b) [2]
1 | B1 | 3.8 µM | 
2 | B2 |  | > 2 fold
3 | B3 | 12.8 µM | 
4 | B4 | 9.3 µM | 
